Test results published in the DeepSol protein solubility set.

Assay: soluble on expression in E. coli; label from the status in PepcDB or PDB records
With “MLGRRAVSVHRFLSRAARQSVTAASSAQPSLQAKTSLLEPLVQNVRITSSANFHMSAVRMSDVITVEGPAFAESISEGDIRWLKQKGDHVNEDELVAEIETDKTSVEVPAPQAGTIVEFLVEDGAKVTAKQKLYKLQPGAGGGSSSAPAKEEPKSAPAKEESKPAPAKEDSKPAVTAAAPPKPVSGDIPKSAPPVARPPSTPSSSTPVGAVPVTRVVVPKGVDPSHAITGARDEVRVKANRMRMRIAQRLKDAQNTYAMLTTFNEIDMSSLIEMRKTYQKDFVAKHGVKLGMMSPFVRAAAYALQESPVVNAVLDENEIVYRHFVDISVAVATPKGLVVPVLRNVESMNYAQIELELANLGVKARDGKLAVEDMEGGTFTISNGGVFGSMFGTPIINPPQSAILGMHGVFDRVVPVNGKPEIRPIMQIALTYDHRLIDGREAVTFLKKIKTAVEDPRIMFMNL” the “soluble on expression in E. coli” value was “not soluble”. For “MKEKKLNLKKHLNTVVTLNSDYLNLLDLMQITNANFPIGTFSHSFGVETYIRKDIVFDGESLIKALLLYMNEQLLHGDLLAIYQIFKLLPKQKINAIWEIDQMINFQGLARETREGQRRIGQQMVKIYNELFNCELLVEYAERIKNKKSYGNPAVAFALLAMHLKIDLKTALYTHLYSTVAALTQNCVRAIPLGQVKGQKIIYQLKHVYFDDIVNKVFTLDFKTDFCKNIPGLEIAQMEHEDTPVRLFMSLEHHHHHH”, the “soluble on expression in E. coli” value was “not soluble”. With “MSLSNAMTSKLERFIDQGVGRVPADIVLKGGCFFDLVTGELVQSDIAIGADRIVGTSGNYEGETEIDISGRIVVPGFIDTHLHIESSLVTPHEFDRCVLPYGVTTAICDPHEIANVLGAAGIEFFLESALETIMDIRVQLSSCVPATHLETSGADLPIESLLPYRHHPKVIGLAEFMNFPGVIHKDPICMAKLDAFQGGHIDGHAPLLSGNDLNGYLAAGIRTEHECTTASEALEKIRKGVHILVREGSVSKDLAALMPIITERLSPFLALCTDDRNPLDIAEQGHLDHMIRTAIASRVEPLAIYRAASISAARAFGLKDRGLVAPGWRADLVVLDSLENCRADMVFSAGRRVTDALFSSRRPVAPIGLDSVKARPVNAAHFGVPVAEGETPVIGVIPGKIITEHRRYRLPVRGNEAAVDLANDIIKVAVIERHGKNGNHANGFVQGFGLKKGAIASTVGHDSHNICVVGVSEDDMARAANRLSEIKGGFVVVEDGKVTGEIALPIAGLMSLEPYETVRDTLHQLRKAAFALGATLEEPFLQLAFLPLPVIPHLKISDRGMVDVDKFALIGEGHHHHHH” the “soluble on expression in E. coli” value was “soluble”. For “MIGAQVDMHFTKGYPSVDLSDPWNKNVLLEVVRMAIPLMKHPNYYRINGKPAIFIWNEAIFYNRAEAYREIKEMVKRDLGVEPYIIADVLPRIMADRKVIPGTPEGEWYIRNLLLRKNDGGDKFIDAYTSWIGFYSVQGETALTPREIEMYSKLYREHVEAWSSYTNGRNKCFIPTVSPGFDRTFDKSFNQQFPIPRDPKRFAEMLKIALDSLGNCKEIRIDTWNDFYEGTFIEPSVSDGFTYLEVLEEFIKELKENLEHHHHHH”, the “soluble on expression in E. coli” value was “not soluble”. With “MGSDKIHHHHHHMRGKMIDDPIDLLRQYSRKLVRELGMLQLNKLAAKEQPSYWHTLIEINKEPNITISKLSQLLLVSLPTLSRIVNSLINDELVTVNEGLDKRERFLRVTDKGKEKVNYIDEYSNTKIKRAFHYLTDEEREQVITAIGKYAQALEQSRLIRDQIRILRLSTSRALRKQIVNMIENIQVNEFHLSITPEINASILKAEEEYCYYSSCNFWYAVDEQGGIIGSIGLKKLNHTEGEVKKFFIAPKYRGLGLAQKLMLTLVRNAMKHGFKKLFLGTVAQLNAARRFYEKNGFVLVNKNSLPKEFELCPLDTHFYYCETDKLDKSLRELI” the “soluble on expression in E. coli” value was “not soluble”. In the case of “MSRLLSGGVGVIFAVLFSVNVGNARDQIQITGSSTVLPYQKIVAEIFGEIYPHFKIPVIESGGTGGGIKEFCRGIGENAIDIVNASRAMKLSELQSCFDAGVKDVEEIRIGYDGIVFATDINGPDWKLQPVDIYRALAARIMKDGKLQSNNVSKWSAVNSALPGWTIAAYIPGEKH”, the “soluble on expression in E. coli” value was “not soluble”. For “ARLGNWEFDLETNVFTCSEESCRIFGIRDHRQGKSHRALMRRVHPEDRVTVKKAIFQAFRTGVGYCMDHRIVLDDGVERIVSQHAELLSADDGRTSRLVGTVHDIT”, the “soluble on expression in E. coli” value was “not soluble”. With “MESENIISAADKARILAEALPYIRRFSGSVAVIKYGGNAMTEPALKEGFARDVVLLKLVGIHPVIVHGGGPQINAMLEKVGKKGEFVQGMRVTDKEAMDIVEMVLGGHVNKEIVSMINTYGGHAVGVSGRDDHFIKAKKLLIDTPEQNGVDIGQVGTVESIDTGLVKGLIERGCIPVVAPVGVGEKGEAFNINADLVAGKLAEELNAEKLLMMTNIAGVMDKTGNLLTKLTPKRIDELIADGTLYGGMLPKIASAVEAAVNGVKATHIIDGRLPNALLLEIFTDAGIGSMILGGGEDA” the “soluble on expression in E. coli” value was “not soluble”. In the case of “MASGRARCTRKLRNWVVEQVESGQFPGVCWDDTAKTMFRIPWKHAGKQDFREDQDAAFFKAWAIFKGKYKEGDTGGPAVWKTRLRCALNKSSEFKEVPERGRMDVAEPYKVYQLLPPGIVSGQPGTQKVPSKRQHSSVSSERKEEEDAMQNCTLSPSVLQDSLNNEEEGASGGAVHSDIGSSSSSSSPEPQEVTDTTEAPFQGDQRSLEFLLPPEPDYSLLLTFIYNGRVVGEAQVQSLDCRLVAEPSGSESSMEQVLFPKPGPLEPTQRLLSQLERGILVASNPRGLFVQRLCPIPISWNAPQAPPGPGPHLLPSNECVELFRTAYFCRDLVRYFQGLGPPPKFQVTLNFWEESHGSSHTPQNLITVKMEQAFARYLLEQTPEQQAAILSLV”, the “soluble on expression in E. coli” value was “soluble”. For “MYKEDTIAAISTPHGAGGVGIIRISGDKAFEIAERIFRGKKDFKLIRSHTINYGKIVNPENGAVLDEVLLSKMEKPKTFTREDVVEINCHGGMVVLKNILELCIKEGARLAEPGEFTKRAFLNGRIDLSQAEAVIDLINSKTNESSKAAISQLEGKLSRKIKDARSKLIELLAHIEVTVDYPEHDIEEITGNMVYEEIGKIKEKLCDIVKSFERGRIIREGIDAVIIGKPNVGKSSLLNELSGKSKAIVTDIPGTTRDIIEEYININGIPLRIIDTAGIRETEDVVEKIGVEKTHRAIDEADLVIMMIDAKRGMDEDDNRILTMLGDKKLIILINKIDLVDEKQINEIESLLKGRKCIRTSVKEGTGISELENAITELFVQGEVSVNEEILLTNIRHKNLIDMAISSIEKAMESIDGSMPLDLVSIDITDAADYLGQITGESVSEDVMHEIFSKFCLGK”, the “soluble on expression in E. coli” value was “not soluble”. In the case of “MAYVTWLLAILHVHKDSFEIAAPSDSYLSAEPGQDVTLTCQLPRTWPVQQVIWEKVQPHQVDILASCNLSQETRYTSKYLRQTRSNCSQGSMKSILIIPNAMAADSGLYRCRSEAITGKNKSFVIRLIITDGE”, the “soluble on expression in E. coli” value was “not soluble”. With “MSLLDIERVREQQRPLPISKIRAQQSHTSFQGVFEEIAGHKSEKTVYAILETLEKDGERLAKHRTAAELHAFKRSVRQCVSHLLESLKVETASSAASGQVRQYKLVKEIDKGLVELTNAVFDQSKSELDLLNKIGELQGLIIQLYLEGHHHHHH” the “soluble on expression in E. coli” value was “soluble”. For “MSLKIIVIGGGAAGMSAASKAKRVNPDSEVIVVESGSYVSYAECGIPYYLQGVVGHIEDLLHYPLSEFTEKRGIKVLLHTTVTRIDTLHSSVLLNNGDVLKYDRLIIATGSRPKPIDVISDRTISIRSLESAMRARNLIEKSKDVTIVGAGVLGVELASVLAESGKNVKVISKYDRVLPQLDEDIGKIFHEYFSSRIDVQKQSSLKSAEEDRGRVKITTSVDDHECDAVIYATGIIPNSEIAVEAGIKTGDRNAILTNGHMETSEPGVYAAGDVATVRNIVTGLDEMMPLAQIANKAGRVAGSNASNSEMVFPGALGTTLVKVFDYEVGFTGINESRAKALGIPYEKTLIKAKSRANYYPGKQDIYVKIIYGKNDKRLLGAQVIGTDGAAWRLNTIATAIFGGFKVSDLFYDDLGYTPPFGPVWDSIVIAGSVSMREGHHHHHH”, the “soluble on expression in E. coli” value was “soluble”. In the case of “MMQALTYYRDLAANTMPGSNDIMEVKDAFMNGTAPMAIYSTYILPAVIKEGDPKNVGFVVPTEKNSAVYGMLTSLTITAGQKTEETEAAEKFVTFMEQADNIADWVMMSPGAALPVNKAVVTTSTWKDNDVIKALGELPNQLIGELPNIQVFGAVGDKKFTRMGDVTGSGVVSSMVHNVTVGKADLPGTLQTSQKKLDELIEQH”, the “soluble on expression in E. coli” value was “not soluble”. For “MNEALDDIDRILVRELAADGRATLSELATRAGLSVSAVQSRVRRLESRGVVQGYSARINPEAVGHLLSAFVAITPLDPSQPDDAPARLEHIEEVESCYSVAGEESYVLLVRVASARALEDLLQRIRTTANVRTRSTIILNTFYSDRQHIP”, the “soluble on expression in E. coli” value was “soluble”. With “GPGSMFTPSTRFLCSARPLLWFGRRGVFAAPHPEKAKTGGEDAFVVHTSGIGVADGVGGYASYGVDPGVYTRNVMKHTLRALQEDDNRGTIGALQALTYGYTEAQKLKQPGGCPVTLVTLLDGRFASVLNLGDCGTICLRSSKLFFATEPQQHSFNCPYQLPEDPPSVGDRTTLEVSEGDVFLCASDGLLDNVDMSDILRHLDAVNRDGCQRVAENLVACACRNGANKGFDSPFAKQARAVGYHYMGGKQDDVTVVVAQLTRGTVAPDDCPSLITELLDVHKT” the “soluble on expression in E. coli” value was “not soluble”. With “MEFKNPGFTGLFVIGRKYFMTAENTEMTLHPKKLPPNAGKGRVKGVPNKTTSLLKESVIEAAKRAGSKYGKEGLISYLEKQALKCPAAYLALLGKVLPLQVTGEDGGAIKMIGRVEIAPLGHDNTTD” the “soluble on expression in E. coli” value was “not soluble”. With “MQKESQTYKIAPAERLASVSEYYFSKKLKEVAQMNAEGKDVISLGIGSPDMPPSKVTIETLCNNAHDPNGHGYQPYVGIPELRKGFAAWYQRWYGVELNPNTEIQPLIGSKEGILHVTLAFVNPGEQVLVPNPGYPTYTSLSKILGAEVISYDLKEEDGWMPDFEALEKMDLNRVKLMWTNYPNMPTGANATPELYERLVDFARRKNIVIVNDNPYSFILNEKPISILSVPGAKECCIEFNSMSKSHNMPGWRIGMLASNAEFVQWILKVKSNIDSGMFRAMQLAAATALEAEADWYEGNNHNYRGRRHLAGEIMKTLGCTYDENQVGMFLWGKIPASCKDVEELTEKVLHQARVFITPGFIFGSNGARFIRISLCCKDAKLAEALERIKKLS” the “soluble on expression in E. coli” value was “not soluble”. For “MPLKGFEIIKSMITLLFLYQAIIRNFEEIVQFLGKIMGCGSSSPAEVAPAEIIEPSPSSDVPSDPKIPTSYRPSIISLQIPNEFGDDVSSDALSDRSDAQEENVDYLYATDVTLQWLLERIYDKFKKPIPEDPQWIIERLNRPSWDLDYATSSVVRVTFGWDDDELPRSVVLKTPVAKDQRDDEEGKYHYIMFKRECNVYEWTQKFPKLIAPKIIHIKKHSKEGSGVVVMEDVSEKGQEQDPVKGLMLEVVRDLLKQIAYLHSISLKHTSWSTLVADLPPSYYAHTIGSFDDTLTFFERQDVDHSRFVHIGKYFSDEYLHSTATETTELLDIPKVLVHGEPYASNVFTKMEGKEQRILSLIDWTEGHSGCFAEDVAKIICWNLNAKERVDNTSSLLEGYHFHLARYYDGDCPFTVDIIQRAYEVFVPFAMVSLCGKVMSVKNKTEKEPLIERAKSLIQQVYAMERLNES”, the “soluble on expression in E. coli” value was “not soluble”. For “GAMDTMESIVLNTIVTGLQEPKKEFIARVIKTIGSQRSLQLYENAMKVENSGGLLTADMSRRKTIGGVFCYLLKQLVAEDQITIQEWNYIRQEEKERINAKNILKRNNRRCQV”, the “soluble on expression in E. coli” value was “soluble”. For “MIWIAVDRVGKKFINCSFGSRGTETGQLLWEKLEKKEIGEVMTDHWRAYAAFLPETIHTQSKAETYTVEGYNSILRHFLARLRRKTKCYTKSLEMLKYSVLLLMKYRNRELTIFHASSVKLEHHHHHH”, the “soluble on expression in E. coli” value was “not soluble”.
